Patent US7547676B2, “Antagonist peptides to the C5A chemotactic function of vitamin D binding protein” (The Research Foundation of State University of New York, priority 2004, dated 2009)

How the values were obtained:
[1] = test system: U937-C5aR cells; assay: C5a-induced intracellular calcium mobilization in U937-C5aR cells; format: cell-based, human; conditions: FIG. 11A; cells pretreated 30 min at 22° C. with 50 nM DBP
Protocol: FIG. 11A and FIG. 11B show the effect of DBP on C5a-induced intracellular calcium mobilization in U937-C5aR cells. U937-C5aR cells (10^7 cells/ml) were resuspended in HBSS-1% BSA containing 2 μM Fluo-3 AM and incubated at 37° C. for 40 minutes. Cells incubated without the dye were used as a control to measure autofluorescence (Fmin). Following the dye uptake, cells were washed twice then suspended at 5×10^6 cells/ml in HBSS containing 1% BSA. For the pretreatment experiments, cells were incubated for 30 min at 22° C. with 50 nM DBP or 0.5 μM DBP peptide 1 (p1). For each measurement, 400 μl of cell suspension was added to a cuvette and stimulated with the indicated concentration of C5a (FIG. 11A) or 0.1 nM C5a (FIG. 11B). Fluorescence was then measured immediately using a Perkin-Elmer LS-5 fluorometer at 505 nm excitation, 526 nm emission for Fluo-3 AM. Fmax was measured by treating labeled cells with 60 μM digitonin. Intracellular free calcium concentrations were calculated using the following formula: (Ca^2+)=Kd (F−Fmin)/(Fmax−F), where Kd=325 nM for Fluo-3 according to manufacturer (Molecular Probes). Data are presented as mean±SEM (n=4-6) of the increase in intracellular calcium concentration.
U937-C5aR cells (10^7 cells/ml) were resuspended in HBSS-1% BSA containing 2 μM Fluo-3 AM and incubated at 37° C. for 40 minutes. Cells incubated without the dye were used as a control to measure autofluorescence (Fmin). Following the dye uptake, cells were washed twice then suspended at 5×10^6 cells/ml in HBSS containing 1% BSA. Cells were incubated for 30 min at 22° C. with either 50 nM DBP or 0.5 μM DBP peptide. For each measurement, 400 μl of cell suspension was added to a cuvette and stimulated with 0.1 nM purified C5a. Fluorescence was then measured immediately using a Perkin-Elmer LS-5 fluorometer at 505 nm excitation, 526 nm emission for Fluo-3 AM. Fmax was measured by treating labeled cells with 60 μM digitonin. Intracellular free calcium concentrations were calculated using the following formula: (Ca2+)=Kd (F−Fmin)/(Fmax−F), where Kd=325 nM for Fluo-3 according to manufacturer (Molecular Probes)

[2] = test system: differentiated HL-60 cells; assay: Ligand-induced calcium mobilization (Fluo-3 AM) in differentiated HL-60 cells; format: cell-based, Human; conditions: differentiated HL-60 cells incubated 30 min with 50 nM of indicated DBP, then C5a
Protocol: Cells and cell culture: Human promyelocytic cell line HL-60 was obtained from ATCC (Rockville, Md.) and cultured in RPMI 1640 medium supplemented with 10% FBS. Differentiation of HL-60 cells was initiated with 250 μM Bt2cAMP for 48 hours.
Ligand-induced calcium mobilization. Calcium mobilization studies were performed using the Fluo-3 AM probe as described previously (see Merritt, J. E. et al., Biochem. J. 269, 513-519 (1990)). Differentiated HL-60 cells (1×10^7 cells/ml) were resuspended in HBSS-1% BSA containing 2 μM Fluo-3 AM (Molecular Probes, Eugene, Oreg.) and incubated at 37° C. for 40 minutes. Cells incubated without the dye were used as a control to measure autofluorescence (Fmin). Following the dye uptake, cells were washed twice then suspended at 5×10^6 cells/ml in HBSS containing 1% BSA. Half of the cell suspension was treated with 50 nM DBP for 30 min at room temperature, the other half served as the untreated control. For each measurement, 400 μl of cell suspension (with or without DBP) was added to a cuvette and stimulated with various concentrations of purified C5a at room temperature (22-24° C.). Fluorescence was then measured immediately using a Perkin-Elmer LS-5 fluorometer at 505 nm excitation, 526 nm emission for Fluo-3 AM. Fmax was measured by treating labeled cells with 60 μM digitonin. Intracellular free calcium concentrations were calculated using the following formula: (Ca^2+)=Kd (F−Fmin)/(Fmax−F), where Kd=325 nM for Fluo-3 according to manufacturer (Molecular Probes).

B1: DBP: Purified human DBP obtained from Biodesign International (protein)
chain: LERGRDYEKNKVCKEFSHLGKEDFTSLSLVLYSRKFPSGTFEQVSQLVKEVVSLTEACCAEGADPDCYDTRTSALSAKSCESNSPFPVHPGTAECCTKEGLERKLCMAALKHQPQEFPTYVEPTNDEICEAFRKDPKEYANQFMWEYSTNYGQAPLSLLVSYTKSYLSMVGSCCTSASPTVCFLKERLQLKHLSLLTTLSNRVCSQYAAYGEKKSRLSNLIKLAQKVPTADLEDVLPLAEDITNILSKCCESASEDCMAKELPEHTVKLCDNLSTKNSKFEDCCQEKTAMDVFVCTYFMPAAQLPELPDVELPTNKDVCDPGNTKVMDKYTFELSRRTHLPEVFLSKVLEPTLKSLGECCDVEDSTTCFNAKGPLLKKELSSFIDKGQELCADYSENTFTEYKKKLAERLKAKLPDATPTELAKLVNKHSDFASNCCSINSPPLYCDSEIDAELKNIL
effect on C5a-induced increase in intracellular calcium [1]: significantly augments | enhancement of intracellular Ca2+ flux in response to C5a [2]: significantly enhanced intracellular calcium influx | enhancement of intracellular Ca2+ flux in response to C5a ([2]; listed as natural DBP): significantly enhanced
